Assay results reported in US11110182B2, “Multifunctional RNA nanoparticles and methods for treating cancer and therapeutic resistant cancer” (University of Cincinnati, priority 2016, dated 2021).

Test system: BT474 cells
Experiment: In vitro mammosphere culture assay, BT474 cells
Format: cell-based, human
Experimental: FIG. 4A) BT474 cells were treated with pRNA nanoparticles in combination with vehicle or 1 μM 4-hydroxy-tamoxifen (4-OHT) as indicated for 48 h, and assayed for cell viability by MTT assay. FIG. 4B) Cells were treated as above and the migration and FIG. 4C) invasion capabilities were examined. FIG. 4D) Cells were treated as above and assayed for in vitro mammosphere formation. FIG. 4E) The number of mammospheres was counted, and FIG. 4F) the mammosphere size was calculated. Scale bar: 10 μm.
Migration and metastasis assay. The 8-μm-pore-size polycarbonate membrane, which separates the two chambers of a 6.5-mm Transwell (Costar), was coated with or without 1:8 DMEM-diluted Matrigel (Corning). Transwell assay was performed as previously described.^57 Briefly, BT474 cells were treated with pRNAs alone or together with 4-hydroxy-tamoxifen (4-OHT) for 48 h and starved with serum-free DMEM containing 0.2% BSA overnight. On the next day, cells were collected and 2×10^5 cells were seeded to the upper chamber of Transwell. The lower chamber was filled with 600 μL DMEM medium containing 10% FBS. After incubation at 37° C. for 24 h, cells on the membranes were fixed and stained with 0.1% crystal violet in 20% ethanol solution. Cells at top side of membranes were removed completely, and cells at the bottom side were examined with an Olympus SZX12 microscope and counted. • Mammosphere culture and breast cancer stem cell analyses. BT474 cells were treated with pRNAs for 48 h. Then, cells were suspended in DMEM/F12 medium supplemented with 1×B27 (Thermo Fisher), 20 ng/mL bFGF and 20 ng/mL EGF (R&D), and added into 24-well ultralow attachment plates. After treatment with or without 1 μM 4-OHT for 7 days, mammosphere formation was recorded using an Axiovert S100 TV inverted microscope (Zeiss). Xenograft tumor tissues were cut into small pieces and digested with trypsin and collagenase at 37° C. for 1 h, and tumor cells were collected and rinsed with pre-cold PBS. All cells were stained with FITC-conjugated anti-CD44 antibody and PE-conjugated anti-CD24 antibody (BD Pharmingen) in the dark on ice for 30 min. After resuspension with 0.5 mL PBS buffer, CD44^+/CD24^−/low cell population was analyzed by flow cytometry. • Orthotopic xenograft breast tumor mouse model, in vivo imaging and anti-tumor therapy. […] The tumor volume was monitored every 3 days, and tumor size was calculated using the formula: volume=0.5×(width)^2×(length). […] After the tumor weights were recorded, part of the tumor tissues were digested with trypsin and collagenase, lysed for extraction of total proteins and RNAs, or fixed in 10% neutral buffered formalin along with organ tissues, respectively, for further western blot, real-time PCR and IHC studies, etc. […]

[1] = BT474, in combination with tamoxifen (1 μM 4-OHT, 7 days)

B1: pRNA-HER2apt-siMED1: 3-WJ pRNA nanoparticle bearing a HER2-targeting RNA aptamer and two different MED1 siRNAs; strands p1 SEQ ID NO: 3, p2 SEQ ID NO: 4 (nucleic acid)
chain 1: GGACAGUGAAAGUGAGUCAAAGGAUCAAUCAUGGCCAAAGAUGUUACUUUGAGAGCCUU
chain 2: GGCUCUCAAAGUAACAUCUAAGGCCAUGUGUAUGUGGGGGGAGGACGAUGCGGUCUGCUGUGCUUGAUAUGCCCCAGACGACUCGCCCCCCACAUACUUUGUUGAUCCAAUGACUCACUUUCACUGUCCUU
modifications: 2'-F modification; third strand may lack entry; pRNA-HER2apt-siMED1, p1; pRNA-HER2apt-siMED1, p2
greatly reduced: number of mammosphere formation [1] | size of mammospheres [1] | number of mammosphere formation (BT474, nanoparticles alone) | size of mammospheres (BT474, nanoparticles alone)
